Target: T1, Elastase (Homo sapiens, UniProt P08246)
T1 sequence (P08246 30-267): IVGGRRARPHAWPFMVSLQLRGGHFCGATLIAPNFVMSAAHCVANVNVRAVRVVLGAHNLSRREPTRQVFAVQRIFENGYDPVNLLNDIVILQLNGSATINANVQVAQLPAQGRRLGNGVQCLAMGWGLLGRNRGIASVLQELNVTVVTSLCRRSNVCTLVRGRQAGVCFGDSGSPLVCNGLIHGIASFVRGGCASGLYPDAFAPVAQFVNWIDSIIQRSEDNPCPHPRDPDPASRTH
Test: Reaction of Trx-Ela-Sub 1-RBB with Elastase
Assay type: biochemical
Settings: incubated with and without Elastase containing buffer; FIG. 10
Description: The stained and purified peptide construct was applied on a cellulose surface and dried at 37° C. for 2 h. Unbound Trx-Ela-Sub 1-RBB was removed with H20. The stripes with the applied Elastase substrate were incubated with and without Elastase containing buffer, respectively.

B1: Trx-Ela-Sub 1-RBB: purified Trx-Ela-Sub1 fusion protein stained with vinyl sulfone dye remazol brilliant blue R (conjugate)
chain: MSDKIIHLTDDSFDTDVLKADGAILVDFWAEWCGPCKMIAPILDEIADEYQGKLTVAKLNIDQNPGTAPKYGIRGIPTLLLFKNGEVAATKVGALSKGQLKEFLDALAGSGSGHMHHHHHHSSGLVPRGSGMKETAAAKFERQHMDSPDLGTDDDDKAMGGSCGGGGSAAPVGGGGSAAPVGGGGSPPGGNRGTTTTRRPATTTGSSPGPTQSHYGQCGGIGYSGPTVCASGTTCQVLNPYYSQCLLEHHHHHH
B1 was tested. Which “dye release from cellulose stripes” value did it give?
The value was “Elastase responsive dye release”.
